For orientation: Kd means the concentration at which binding is half-saturated. Read a low Kd as tighter binding.

Consider 6 substances from article PMC12905440.

Data set [1] deals with Ago1 (RISC) (UniProt A1Z9J5). The data set can be described thus: RBNS. The following applies: RBNS: 20 mM HEPES-KOH pH 7.9, 100 mM KOAc, 3.5 mM Mg(OAc)2, 0.05% CHAPS, 2 mM DTT, 8% glycerol, BSA, tRNA, 25 C, 2 h, filter binding: 25 mM HEPES-KOH pH 7.9 ….
Data set [2] has as its target Ago1 (RISC) (UniProt A1Z9J5). The data set can be described thus: double-filter binding. The following applies: let-7 guide, RBNS: 20 mM HEPES-KOH pH 7.9, 100 mM KOAc, 3.5 mM Mg(OAc)2, 0.05% CHAPS, 2 mM DTT, 8% glycerol, BSA, tRNA, 25 C, 2 h, filter binding: 25 mM HEPES-KOH pH 7.9 ….
The next data set concerns the target T1, PUM2 (Homo sapiens) (UniProt Q8TB72).
T1 sequence: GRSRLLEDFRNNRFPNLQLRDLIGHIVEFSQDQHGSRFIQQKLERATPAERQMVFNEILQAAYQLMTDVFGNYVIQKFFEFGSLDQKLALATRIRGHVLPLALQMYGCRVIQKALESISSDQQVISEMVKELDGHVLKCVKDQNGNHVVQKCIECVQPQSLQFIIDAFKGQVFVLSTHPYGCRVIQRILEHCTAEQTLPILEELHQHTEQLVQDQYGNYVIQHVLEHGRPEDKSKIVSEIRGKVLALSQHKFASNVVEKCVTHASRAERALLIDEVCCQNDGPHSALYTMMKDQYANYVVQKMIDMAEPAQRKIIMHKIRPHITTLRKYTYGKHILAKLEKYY
As to the kind of experiment: RBNS. The following applies: re-analysis of published RBNS data (ref 38); RBNS: 20 mM HEPES-KOH pH 7.9, 100 mM KOAc, 3.5 mM Mg(OAc)2, 0.05% CHAPS, 2 mM DTT, 8% glycerol, BSA, tRNA, 25 C, 2 h; filter binding: 25 mM HEPES-KOH pH 7.9 ….

Sequence of Ago1 (RISC) (A1Z9J5 entry or part of it): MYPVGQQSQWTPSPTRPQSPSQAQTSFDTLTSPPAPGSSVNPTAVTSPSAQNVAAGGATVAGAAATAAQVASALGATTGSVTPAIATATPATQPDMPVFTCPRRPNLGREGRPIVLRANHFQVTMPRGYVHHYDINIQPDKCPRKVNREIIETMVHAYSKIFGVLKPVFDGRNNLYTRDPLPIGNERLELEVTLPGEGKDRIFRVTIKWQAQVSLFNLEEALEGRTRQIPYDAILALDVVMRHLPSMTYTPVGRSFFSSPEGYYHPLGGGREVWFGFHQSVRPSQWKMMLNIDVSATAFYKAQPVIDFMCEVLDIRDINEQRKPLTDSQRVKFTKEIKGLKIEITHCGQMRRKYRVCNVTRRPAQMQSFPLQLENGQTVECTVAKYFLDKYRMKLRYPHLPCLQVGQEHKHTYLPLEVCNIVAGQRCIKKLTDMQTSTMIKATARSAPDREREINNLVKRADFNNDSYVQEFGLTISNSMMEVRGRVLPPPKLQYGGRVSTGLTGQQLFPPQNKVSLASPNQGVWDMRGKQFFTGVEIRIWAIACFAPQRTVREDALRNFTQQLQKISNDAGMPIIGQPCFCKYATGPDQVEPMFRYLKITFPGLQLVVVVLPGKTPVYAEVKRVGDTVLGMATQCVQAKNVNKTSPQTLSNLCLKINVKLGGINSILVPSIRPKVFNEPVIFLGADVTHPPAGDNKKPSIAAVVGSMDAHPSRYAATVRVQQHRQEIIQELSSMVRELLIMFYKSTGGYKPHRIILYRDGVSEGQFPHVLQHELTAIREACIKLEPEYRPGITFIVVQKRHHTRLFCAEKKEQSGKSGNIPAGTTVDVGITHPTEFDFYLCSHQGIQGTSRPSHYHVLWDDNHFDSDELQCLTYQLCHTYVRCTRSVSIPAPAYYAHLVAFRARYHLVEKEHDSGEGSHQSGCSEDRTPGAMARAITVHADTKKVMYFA

In the data set with Ago1 (RISC) [1] (miR-184 guide), “UCCGUCUB / UGGACGGAGAACUGAUAAGGGC [miR-184 / 7mer-m8,w2]” yielded a Kd of 0.154 nM.
On to “UGAUCUUB / UGAGAUCAUUUUGAAAGCUGAUU [bantam / 7mer-m8,w2]”, for which, in the data set with Ago1 (RISC) [1] (bantam guide), the Kd is 0.866 nM.
“let-7 guide / seed-matching target (Fig 1c)” gave a Kd with Ago1 (RISC) [2] (5' 32P target) of 0.005 nM.
In the data set with Ago1 (RISC) [1] (let-7 guide), “CUACCUUB / UGAGGUAGUAGGUUGUAUAGU [let-7 / 7mer-m8,w2]” registered a Kd of 0.278 nM.
In the data set with PUM2 (Homo sapiens), UGUAUAUA [PUM consensus site] had a Kd of 0.12 nM.
Substance “let-7 guide / fully complementary target (Fig 1c)” gave a Kd in the data set with Ago1 (RISC) [2] of 0.002 nM.
